Source: IntAct's records for PubMed 21920025

Assays:
prio_human PRNP = prio_human PRNP (UniProt P04156)
prio_bovin PRNP = prio_bovin PRNP (UniProt P10279)

Substance	effect of a mutation on the interaction (prio_human PRNP)	effect of a mutation on the interaction (prio_bovin PRNP)
Major prion protein (Bos taurus (Bovine)) (from UniProt P10279) L149I	decreasing interaction	–
Major prion protein (Homo sapiens) (from UniProt P04156) M129V	–	decreasing interaction
